What was measured:
DA transporter (DAT) = DA transporter (DAT) (Rattus norvegicus, UniProt P23977); test: [3H]DA uptake into rat striatal synaptosomes; format: biochemical
human DAT = human DAT (Homo sapiens, UniProt Q01959); test: Dissociation of [3H]WIN 35,428 binding from HEK/hDAT cells; settings: for Dissociation rate K−1 of [3H]WIN 35,428 binding (single component model): experiment B
Sequence of human DAT (Q01959 whole entry): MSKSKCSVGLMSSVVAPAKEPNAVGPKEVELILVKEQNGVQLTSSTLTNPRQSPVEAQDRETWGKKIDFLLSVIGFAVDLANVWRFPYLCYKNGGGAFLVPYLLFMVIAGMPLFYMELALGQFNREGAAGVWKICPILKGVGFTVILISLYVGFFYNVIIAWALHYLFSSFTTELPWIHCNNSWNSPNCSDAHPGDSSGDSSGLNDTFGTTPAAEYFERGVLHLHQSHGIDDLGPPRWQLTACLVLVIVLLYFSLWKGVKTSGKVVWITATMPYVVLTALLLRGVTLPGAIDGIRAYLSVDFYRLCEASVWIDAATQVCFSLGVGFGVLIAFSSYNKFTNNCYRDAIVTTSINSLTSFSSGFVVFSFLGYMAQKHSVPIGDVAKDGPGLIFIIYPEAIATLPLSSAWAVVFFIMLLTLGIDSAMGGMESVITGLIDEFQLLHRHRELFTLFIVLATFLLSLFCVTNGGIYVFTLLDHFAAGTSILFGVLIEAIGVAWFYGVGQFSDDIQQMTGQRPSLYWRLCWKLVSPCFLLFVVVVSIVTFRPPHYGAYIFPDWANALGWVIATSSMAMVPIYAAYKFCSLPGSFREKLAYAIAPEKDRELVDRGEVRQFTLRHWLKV

Sequence of DA transporter (DAT) (P23977 whole entry): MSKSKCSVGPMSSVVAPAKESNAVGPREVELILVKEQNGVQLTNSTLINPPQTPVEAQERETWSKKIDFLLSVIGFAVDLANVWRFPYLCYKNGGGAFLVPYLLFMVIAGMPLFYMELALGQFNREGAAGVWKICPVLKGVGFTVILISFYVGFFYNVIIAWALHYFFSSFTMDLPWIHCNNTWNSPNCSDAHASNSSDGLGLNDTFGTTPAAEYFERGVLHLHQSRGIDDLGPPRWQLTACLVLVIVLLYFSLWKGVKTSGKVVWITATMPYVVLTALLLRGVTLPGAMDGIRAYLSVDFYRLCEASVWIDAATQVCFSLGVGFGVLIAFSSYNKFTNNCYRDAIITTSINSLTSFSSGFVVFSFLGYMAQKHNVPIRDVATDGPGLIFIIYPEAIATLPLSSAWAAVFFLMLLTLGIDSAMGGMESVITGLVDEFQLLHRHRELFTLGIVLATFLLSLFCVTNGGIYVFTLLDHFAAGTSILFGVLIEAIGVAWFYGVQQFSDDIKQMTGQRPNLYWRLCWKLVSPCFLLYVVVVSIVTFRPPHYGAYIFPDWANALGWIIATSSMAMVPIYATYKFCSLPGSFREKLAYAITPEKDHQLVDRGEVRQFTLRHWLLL

COC(=O)[C@H]1[C@@H](OC(=O)c2ccccc2)C[C@@H]2CC[C@H]1N2C [Cocaine]
Specific Uptake (percentage of control) (DA transporter (DAT); control (cocaine alone)): 100%

CN[C@@H]1C[C@@H](c2ccc(Cl)c(Cl)c2)c2ccccc21.Cl [Indatraline, indatraline hydrochloride]
Specific Uptake (percentage of control) (DA transporter (DAT); indatraline 10 nM, control = cocaine alone): 33%

B1: Tat: Recombinant HIV-1 Tat1-86 protein, LA1/Bru strain of HIV-1 clade B, Genbank accession no. K02013 (protein)
chain: MEPVDPRLEPWKHPGSQPKTACTTCYCKKCCFHCQVCFTTKALGISYGRKKRRQRRRPPQGSQTHQVSLSKQPTSQPRGDPTGPKE
Dissociation rate of [3H]WIN 35,428 relative to that observed with cocaine alone (human DAT; Tat added after cocaine): 25%
Dissociation rate K−1 of [3H]WIN 35,428 binding (single component model) (human DAT; condition-2: cocaine 10 μM at time 0, Tat 5 μM added 5 min later): 0.08 ± 0.005 min⁻¹
Dissociation rate K−1 of [3H]WIN 35,428 binding (single component model) (human DAT; condition-3: Tat 5 μM alone): 0.03 ± 0.009 min⁻¹
Specific Uptake (percentage of control) (DA transporter (DAT); Tat 5 μM, control = cocaine alone): 45%
